This sample holds only a part of the variants without activity.
Assays:
biotinyl-Phe-oxazolone = experiment: self-aminoacylation, catalytic enhancement (BFO) (fold over background); higher = more active; k-Seq, kA / k0A0; sequences stand for … in GGGAAUGGAUCCACAUCUACGAAUUC…UUCACUGCAGACUUGACGAAGCUG
In short: (§1)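 Mutagenized RNA pools with a 21-nt variable region (0.43 μM) were reacted with each biotinyl-aminoacyl-oxazolone at 2–1250 μM for 90 minutes at room temperature, in 50 μL HEPES/NaCl/KCl/MgCl2/CaCl2 buffer containing 5% acetonitrile at pH 6.9–7.0. RNA captured on streptavidin was quantified by triplicate qPCR and by Illumina sequencing. The fraction reacted for each sequence was fit to a pseudo-first-order model with bootstrapping, and catalytic enhancement is the median kA divided by the uncatalyzed rate, taken as the low-activity peak of a bimodal Gaussian fit.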

biotinyl-Ile-oxazolone = experiment: self-aminoacylation, catalytic enhancement (BIO) (fold over background); higher = more active; k-Seq, kA / k0A0; sequences stand for … in GGGAAUGGAUCCACAUCUACGAAUUC…UUCACUGCAGACUUGACGAAGCUG
In short: as §1

biotinyl-Met-oxazolone = experiment: self-aminoacylation, catalytic enhancement (BMO) (fold over background); higher = more active; k-Seq, kA / k0A0; sequences stand for … in GGGAAUGGAUCCACAUCUACGAAUUC…UUCACUGCAGACUUGACGAAGCUG
In short: as §1

biotinyl-Val-oxazolone = experiment: self-aminoacylation, catalytic enhancement (BVO) (fold over background); higher = more active; k-Seq, kA / k0A0; sequences stand for … in GGGAAUGGAUCCACAUCUACGAAUUC…UUCACUGCAGACUUGACGAAGCUG
In short: as §1

biotinyl-Leu-oxazolone = experiment: self-aminoacylation, catalytic enhancement (BLO) (fold over background); higher = more active; k-Seq, kA / k0A0; sequences stand for … in GGGAAUGGAUCCACAUCUACGAAUUC…UUCACUGCAGACUUGACGAAGCUG
In short: as §1

biotinyl-Trp-oxazolone = experiment: self-aminoacylation, catalytic enhancement (BWO) (fold over background); higher = more active; k-Seq, kA / k0A0; sequences stand for … in GGGAAUGGAUCCACAUCUACGAAUUC…UUCACUGCAGACUUGACGAAGCUG
In short: as §1

Row | Sequence | self-aminoacylation (biotinyl-Phe-oxazolone) | self-aminoacylation (biotinyl-Ile-oxazolone) | self-aminoacylation (biotinyl-Met-oxazolone) | self-aminoacylation (biotinyl-Val-oxazolone) | self-aminoacylation (biotinyl-Leu-oxazolone) | self-aminoacylation (biotinyl-Trp-oxazolone)
1 | AAUAGCCUGGUCAUCGAGUGA [Fam2.1 aminoacylation ribozyme variant] | 18.6 | 4.15 | 4.77 | 4.05 | 4.95 | 7.5
2 | AAUCACCGAGGUCAUCGGGUG [Fam2.2 aminoacylation ribozyme variant] | 67.7 | 5.03 | 5.14 | 5.33 | 6.88 | 7.72
3 | AAUCACCUAGGUCACCGGGUG [Fam2.2 aminoacylation ribozyme variant] | 21.8 | 4.26 | 4.08 | 4.04 | 5.27 | 6.06
4 | AAUCACCUAGGUCAUCGGAUG [Fam2.2 aminoacylation ribozyme variant] | 0.476 | 1.06 | 0.909 | 1.19 | 0.798 | 1.08
5 | AAUCACCUAGGUCAUGGGGUG [Fam2.2 aminoacylation ribozyme variant] | 19.4 | 3.44 | 3.26 | 3.71 | 4.25 | 4.91
6 | AAUCACCUAGGUUAUCGGGUG [Fam2.2 aminoacylation ribozyme variant] | 38.4 | 3.83 | 4.32 | 4.23 | 4.57 | 7.07
7 | AAUCACCUAGUUCAUCGGGUG [Fam2.2 aminoacylation ribozyme variant] | 16.3 | 3.01 | 3.33 | 3.16 | 2.59 | 3.72
8 | AAUCACCUUGGUCAUCGGGUG [Fam2.2 aminoacylation ribozyme variant] | 43.2 | 4.22 | 6.06 | 5.18 | 6.76 | 8.74
9 | AAUCACGUAGGUCAUCGGGUG [Fam2.2 aminoacylation ribozyme variant] | 30.4 | 3.09 | 3.19 | 3.77 | 4.02 | 4.86
10 | AAUCAGCUAGGUCAUCGGGUG [Fam2.2 aminoacylation ribozyme variant] | 37.5 | 5.2 | 4.97 | 6.64 | 5.01 | 7.54
11 | AAUUUGGCUAAUAGUCGCAAG [Fam3.1 aminoacylation ribozyme variant] | 2.14 | 1.79 | 1.82 | 1.7 | 1.96 | 1.99
12 | AAUUUUGCCAAUAGUCGCAAG [Fam3.1 aminoacylation ribozyme variant] | 2.34 | 1.78 | 2.31 | 1.69 | 1.8 | 1.8
13 | AAUUUUGCUAAUAGCCGCAAG [Fam3.1 aminoacylation ribozyme variant] | 1.7 | 1.74 | 1.33 | 1.44 | 1.49 | 1.31
14 | AAUUUUGCUAAUAGUCGAAAG [Fam3.1 aminoacylation ribozyme variant] | 3.69 | 1.56 | 1.16 | 0.991 | 1.2 | 2.11
15 | AAUUUUGCUAAUAGUGGCAAG [Fam3.1 aminoacylation ribozyme variant] | 0.836 | 0.771 | 0.798 | 0.632 | 0.633 | 0.652
16 | AAUUUUGCUAAUAGUUGCAAG [Fam3.1 aminoacylation ribozyme variant] | 2.06 | 1.73 | 1.54 | 1.53 | 1.63 | 1.75
17 | AAUUUUGCUAAUAUUCGCAAG [Fam3.1 aminoacylation ribozyme variant] | 1.5 | 1.92 | 1.55 | 1.5 | 1.57 | 2.15
18 | AAUUUUGCUACUAGUCGCAAG [Fam3.1 aminoacylation ribozyme variant] | 2.25 | 1.87 | 1.53 | 1.74 | 1.54 | 2.5
19 | AAUUUUGCUCAUAGUCGCAAG [Fam3.1 aminoacylation ribozyme variant] | 3.17 | 1.85 | 1.82 | 1.57 | 1.98 | 1.69
20 | ACAACCCUGGUCAUCGAGUGA [Fam2.1 aminoacylation ribozyme variant] | 17.4 | 6.16 | 11.4 | 5.2 | 12.2 | 12.5
21 | ACACAAUUCAAGCAAUCGGUC [Fam1B.1 aminoacylation ribozyme variant] | 1.95 | 1.44 | 1.21 | 1.18 | 1.21 | 1.67
22 | ACACACUCCAAGCAAUCGGUC [Fam1B.1 aminoacylation ribozyme variant] | 1.92 | 0.959 | 0.768 | 0.924 | 0.864 | 0.999
23 | ACACACUUCAAGCAAUCAGUC [Fam1B.1 aminoacylation ribozyme variant] | 9.33 | 1.12 | 0.988 | 1.11 | 0.999 | 4.18
24 | ACACACUUCAAGCAAUCGGUA [Fam1B.1 aminoacylation ribozyme variant] | 2 | 1.73 | 1.66 | 1.55 | 1.84 | 2.19
25 | ACACACUUCAAGCUAUCGGUC [Fam1B.1 aminoacylation ribozyme variant] | 1.15 | 1.33 | 1.03 | 1.2 | 1.1 | 0.982

Source: the supplement of paper PMC9233669
